Laboratory results from patent publication US20220056517A1 (OXFORD NANOPORE TECHNOLOGIES, published 2022).

Tests used:
[1] = target: T1, CsgG Y51A/F56V/N91R/K94Q/R97W-del(V105-I107) pore (E. coli, UniProt P0AEA2 16-277); test: pore 6; in vitro reconstitution; DNA translocation, signal:noise
T1 chain: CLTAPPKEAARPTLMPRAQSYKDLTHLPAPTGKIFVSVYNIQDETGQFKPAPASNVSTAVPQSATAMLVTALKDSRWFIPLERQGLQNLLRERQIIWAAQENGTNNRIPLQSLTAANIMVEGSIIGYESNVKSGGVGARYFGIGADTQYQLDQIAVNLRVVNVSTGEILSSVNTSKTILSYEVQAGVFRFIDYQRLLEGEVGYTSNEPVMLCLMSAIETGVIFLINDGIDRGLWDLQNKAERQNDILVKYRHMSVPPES

[2] = target: T2, CsgG Y51S/N55A/F56Q/N91R/K94Q/R97W-del(V105-I107) pore (E. coli, UniProt P0AEA2 16-277); test: pore 7; in vitro reconstitution; DNA translocation, signal:noise
T2 chain: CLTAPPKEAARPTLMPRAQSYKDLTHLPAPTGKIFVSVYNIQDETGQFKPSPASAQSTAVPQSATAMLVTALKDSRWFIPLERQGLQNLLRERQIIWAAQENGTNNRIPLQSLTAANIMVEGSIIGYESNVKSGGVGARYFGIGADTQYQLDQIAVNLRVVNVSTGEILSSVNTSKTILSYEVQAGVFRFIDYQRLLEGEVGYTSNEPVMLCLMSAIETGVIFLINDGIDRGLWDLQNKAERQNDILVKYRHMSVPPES

[3] = target: T3, CsgG Y51T/N55V/F56Q/N91R/K94Q/R97W-del(V105-I107) pore containing the C terminal strep tag (E. coli, UniProt P0AEA2 16-277); test: pore 9; in vitro reconstitution; DNA translocation, signal:noise
T3 construct: not shown: C-terminal Strep tag
T3 chain: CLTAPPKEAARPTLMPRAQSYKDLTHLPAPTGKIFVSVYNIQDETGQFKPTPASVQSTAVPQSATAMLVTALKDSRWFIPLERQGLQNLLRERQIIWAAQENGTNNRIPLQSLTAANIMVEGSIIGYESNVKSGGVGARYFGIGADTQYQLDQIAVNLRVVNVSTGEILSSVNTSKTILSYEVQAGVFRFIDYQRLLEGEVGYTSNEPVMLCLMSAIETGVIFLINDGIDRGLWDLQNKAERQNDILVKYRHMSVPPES

[4] = target: T4, CsgG Y51A/N55I/F56Q/N91R/K94Q/R97W-del(V105-I107) pore containing the C terminal strep tag (E. coli, UniProt P0AEA2 16-277); test: pore 2; in vitro reconstitution; DNA translocation, signal:noise
T4 construct: also called Y51A/N551/F56Q/N91R/K94Q/R97W-del(V105-I107) (sic); not shown: C-terminal Strep tag
T4 chain: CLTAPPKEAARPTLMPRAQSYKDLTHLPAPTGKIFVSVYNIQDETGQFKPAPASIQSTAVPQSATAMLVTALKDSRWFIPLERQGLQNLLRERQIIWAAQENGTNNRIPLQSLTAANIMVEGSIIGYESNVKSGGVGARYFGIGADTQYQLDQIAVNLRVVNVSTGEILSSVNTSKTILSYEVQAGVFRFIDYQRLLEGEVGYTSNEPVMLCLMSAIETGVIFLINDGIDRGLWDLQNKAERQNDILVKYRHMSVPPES

[5] = target: T5, CsgG Y51A/F56A/N91R/K94Q/R97W-del(V105-I107) pore containing the C terminal strep tag (E. coli, UniProt P0AEA2 16-277); test: pore 4; in vitro reconstitution; DNA translocation, signal:noise
T5 construct: not shown: C-terminal Strep tag
T5 chain: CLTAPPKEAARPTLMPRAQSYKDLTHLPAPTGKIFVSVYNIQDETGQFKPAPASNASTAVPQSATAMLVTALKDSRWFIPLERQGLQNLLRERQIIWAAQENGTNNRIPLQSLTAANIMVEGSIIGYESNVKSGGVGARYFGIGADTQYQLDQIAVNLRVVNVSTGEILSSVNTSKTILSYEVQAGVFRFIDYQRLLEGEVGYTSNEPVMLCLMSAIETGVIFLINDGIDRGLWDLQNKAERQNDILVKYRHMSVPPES

[6] = target: T6, CsgG Y51S/N55V/F56Q/N91R/K94Q/R97W-del(V105-I107) pore containing the C terminal strep tag (E. coli, UniProt P0AEA2 16-277); test: pore 8; in vitro reconstitution; DNA translocation, signal:noise
T6 construct: also called Y515/N55V/F56Q/N91R/K94Q/R97W-del(V105-I107) (sic); not shown: C-terminal Strep tag
T6 chain: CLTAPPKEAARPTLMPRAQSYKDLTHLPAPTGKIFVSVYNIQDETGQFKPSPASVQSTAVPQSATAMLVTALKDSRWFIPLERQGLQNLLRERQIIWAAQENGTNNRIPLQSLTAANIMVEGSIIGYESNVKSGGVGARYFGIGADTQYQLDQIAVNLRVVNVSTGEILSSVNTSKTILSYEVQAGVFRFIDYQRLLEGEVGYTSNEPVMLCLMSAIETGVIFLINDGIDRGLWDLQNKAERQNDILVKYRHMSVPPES

[7] = target: T7, CsgG Y51A/F56Q/N91R/K94Q/R97W-del(V105-I107) pore containing the C terminal strep tag (E. coli, UniProt P0AEA2 16-277); test: pore 1; in vitro reconstitution; DNA translocation, signal:noise
T7 construct: Oligomeric CsgG pore; not shown: C-terminal Strep tag
T7 chain: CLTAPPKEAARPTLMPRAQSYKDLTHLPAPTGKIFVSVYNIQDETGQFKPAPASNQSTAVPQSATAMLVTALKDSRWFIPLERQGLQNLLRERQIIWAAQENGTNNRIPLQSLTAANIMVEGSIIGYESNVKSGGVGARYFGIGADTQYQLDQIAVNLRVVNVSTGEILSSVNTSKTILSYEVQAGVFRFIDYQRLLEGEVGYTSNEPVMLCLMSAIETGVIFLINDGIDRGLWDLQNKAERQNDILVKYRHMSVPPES

[8] = target: T8, CsgG Y51A/F56Q/N91R/K94Q/R97W/R192D-del(V105-I107) pore (E. coli, UniProt P0AEA2 16-277); test: last panel; reader head discrimination from DNA translocation
T8 chain: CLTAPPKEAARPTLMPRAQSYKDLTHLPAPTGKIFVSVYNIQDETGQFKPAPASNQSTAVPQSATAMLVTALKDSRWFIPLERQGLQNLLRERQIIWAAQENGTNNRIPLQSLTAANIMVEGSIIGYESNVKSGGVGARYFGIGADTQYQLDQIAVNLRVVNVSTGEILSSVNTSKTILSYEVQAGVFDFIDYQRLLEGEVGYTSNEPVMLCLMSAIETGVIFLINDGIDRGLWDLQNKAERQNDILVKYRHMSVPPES

Measured: binding result

B1: CsgF-(1-35) synthetic peptide (peptide)
peptide: GTMTFQFRNPNFGGNPNNGAFLLNSAQAQNSYKDP
notes: also called CsgF (1-35) peptide
binds: [1] | [2] | [3] | [4] | [5] | [6] | [7]

B2: CsgF-N17S-(1-45) peptide (peptide)
peptide: GTMTFQFRNPNFGGNPSNGAFLLNSAQAQNSYKDPSYNDDFGIET
binds: [8]
